Test results taken from patent US7851165B2, “Screening compounds for activity in modulating chloride ion transport” (Pharmos Bioscience A/S, priority 2005, dated 2010).

What was measured:
[1] = test system: Ostm1; assay: Western blot of Ostm1 species after incubating fibroblasts with protease inhibitors; format: cell-based; conditions: fibroblasts incubated with protease inhibitor, FIG. 1 part (d)
[2] = molecular target: T1, ClC-6, endogenous, from solubilized mouse brain membranes (mouse, UniProt O35454 1-870); assay: co-immunoprecipitation from solubilized mouse brain membranes, Western blot
T1 construct: Specificity control in the brain co-immunoprecipitation; also called CIC-6
T1 sequence (looked up): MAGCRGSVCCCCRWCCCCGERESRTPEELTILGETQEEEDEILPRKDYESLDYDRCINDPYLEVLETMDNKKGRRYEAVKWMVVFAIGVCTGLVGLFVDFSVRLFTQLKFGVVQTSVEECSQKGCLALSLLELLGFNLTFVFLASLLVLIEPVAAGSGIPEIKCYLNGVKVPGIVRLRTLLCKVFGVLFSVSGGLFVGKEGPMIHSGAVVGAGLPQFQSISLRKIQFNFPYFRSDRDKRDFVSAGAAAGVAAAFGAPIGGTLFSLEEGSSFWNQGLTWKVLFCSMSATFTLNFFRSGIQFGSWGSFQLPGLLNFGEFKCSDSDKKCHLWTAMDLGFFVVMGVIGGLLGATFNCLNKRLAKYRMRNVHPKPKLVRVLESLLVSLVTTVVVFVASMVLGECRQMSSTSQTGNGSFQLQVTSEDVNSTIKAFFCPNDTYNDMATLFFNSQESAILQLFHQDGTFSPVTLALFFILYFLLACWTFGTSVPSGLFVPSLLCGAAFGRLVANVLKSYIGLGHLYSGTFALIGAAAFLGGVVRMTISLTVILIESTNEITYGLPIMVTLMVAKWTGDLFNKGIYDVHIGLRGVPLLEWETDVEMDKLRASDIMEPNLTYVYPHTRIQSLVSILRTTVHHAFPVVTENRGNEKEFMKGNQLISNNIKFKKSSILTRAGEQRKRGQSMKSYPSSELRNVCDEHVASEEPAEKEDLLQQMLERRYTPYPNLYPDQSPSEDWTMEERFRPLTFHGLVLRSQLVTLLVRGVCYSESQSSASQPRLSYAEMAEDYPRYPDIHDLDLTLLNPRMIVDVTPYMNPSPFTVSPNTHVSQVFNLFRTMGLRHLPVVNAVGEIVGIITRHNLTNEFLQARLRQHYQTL
Text: (§1) ClC-7 and Ostm1 can be co-immunoprecipitated using endogenous material (FIG. part (d)) or overexpressed proteins (FIG. 6). […] Solubilized brain membranes from the genotypes indicated were directly loaded on the gel (input, lanes 1-3), or first immunoprecipitated with ClC-7 (lanes 4,5) or Ostm1 antibodies (lanes 6,7).
(§2) Ostm1 or ClC-7 antibodies were crosslinked to protein A sepharose by dimethylpimelimidate. Brain membranes were pelleted and solubilized in lysis buffer (MES buffered saline pH 6.5, 1% Triton X-100, 2.5 mM CaCl_2, 2.5 mM MgCl_2). Non-solubilized material was removed by centrifugation at 70,000×g. Samples were incubated with protein A sepharose-antibody complexes for 2 h at 4° C. and washed 4× with lysis buffer. After elution with 100 μl 0.1 M glycine/Cl, pH 2.8, samples were neutralized and denatured using SDS sample buffer. Equivalent amounts of lysate and precipitate were separated by SDS-PAGE.
(§3) Resulting Western blots were probed for the proteins indicated at right. Arrowheads, specific Ostm1 bands; *, non-specific bands. Equivalent amounts of lysates and precipitates were loaded.

[3] = molecular target: T2, ClC-3, endogenous, from solubilized mouse brain membranes (mouse, UniProt P51791 1-818, limits assumed); assay: as above
T2 construct: Specificity control in the brain co-immunoprecipitation; also called CIC-3
T2 sequence (looked up): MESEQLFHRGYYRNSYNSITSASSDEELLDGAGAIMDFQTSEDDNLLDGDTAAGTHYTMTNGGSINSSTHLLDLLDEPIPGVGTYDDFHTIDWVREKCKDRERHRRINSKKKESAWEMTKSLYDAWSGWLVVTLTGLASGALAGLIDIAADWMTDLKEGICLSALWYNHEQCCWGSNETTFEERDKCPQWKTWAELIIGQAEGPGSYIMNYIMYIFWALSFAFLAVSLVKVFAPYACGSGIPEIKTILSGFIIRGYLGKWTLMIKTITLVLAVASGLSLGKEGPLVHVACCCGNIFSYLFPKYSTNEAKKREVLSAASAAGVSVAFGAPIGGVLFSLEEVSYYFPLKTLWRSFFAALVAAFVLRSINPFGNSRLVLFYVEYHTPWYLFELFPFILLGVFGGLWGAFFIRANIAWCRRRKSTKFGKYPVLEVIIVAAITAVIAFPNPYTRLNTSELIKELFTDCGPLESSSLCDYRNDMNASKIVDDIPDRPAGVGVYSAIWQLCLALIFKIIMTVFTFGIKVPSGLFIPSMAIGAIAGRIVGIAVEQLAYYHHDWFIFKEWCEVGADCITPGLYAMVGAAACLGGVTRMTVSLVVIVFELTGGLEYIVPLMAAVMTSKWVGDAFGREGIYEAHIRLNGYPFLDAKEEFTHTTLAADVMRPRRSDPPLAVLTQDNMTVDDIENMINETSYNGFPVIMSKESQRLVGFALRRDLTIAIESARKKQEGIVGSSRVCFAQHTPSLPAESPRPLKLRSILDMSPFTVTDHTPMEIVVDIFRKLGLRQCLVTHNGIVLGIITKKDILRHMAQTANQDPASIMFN
Text: as §1, §2, §3

[4] = molecular target: T3, lamp-2, endogenous, from solubilized mouse brain membranes (mouse, UniProt P17047 26-415, limits assumed); assay: as above
T3 construct: Specificity control in the brain co-immunoprecipitation
T3 sequence (looked up): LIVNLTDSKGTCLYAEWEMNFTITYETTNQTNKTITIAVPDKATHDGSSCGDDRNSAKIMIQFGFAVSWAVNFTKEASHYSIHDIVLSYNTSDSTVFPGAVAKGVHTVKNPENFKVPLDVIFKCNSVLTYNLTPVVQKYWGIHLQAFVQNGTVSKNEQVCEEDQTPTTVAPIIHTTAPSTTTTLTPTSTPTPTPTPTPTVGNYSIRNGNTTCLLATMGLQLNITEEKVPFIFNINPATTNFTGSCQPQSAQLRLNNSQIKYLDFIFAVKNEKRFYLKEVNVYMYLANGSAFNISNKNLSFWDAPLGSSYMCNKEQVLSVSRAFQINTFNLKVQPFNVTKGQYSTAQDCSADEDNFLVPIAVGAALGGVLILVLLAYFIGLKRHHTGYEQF
Text: as §1, §2, §3

CC(=O)N[C@@H](CC(C)C)C(=O)N[C@@H](CC(C)C)C(=O)N[C@H](C=O)CCCNC(=N)N [leupeptin]
proportion of the large (~80 kD) Ostm1 species versus the smaller ones [1]: increased the proportion of the large Ostm1 species

B1: Ostm1 (Osteopetrosis-associated transmembrane protein 1), endogenous, from solubilized mouse brain membranes (other, UniProt Q8BGT0 35-338, looked up)
chain: ALPFTSSRHPGFADLLSEQQLLEVQDLTLSLLQGGGLGPLSLLPPDLPDLEPECRELLMDFANSSAELTACMVRSARPVRLCQTCYPLFQQVAIKMDNISRNIGNTSEGPRCGGSLLTADRMQIVLMVSEFFNSTWQEANCANCLTNNGEDLSNNTEDFLSLFNKTLACFEHNLQGHTYSLLPPKNYSEVCRNCKEAYKNLSLLYSQMQKLNGLENKAEPETHLCIDVEDAMNITRKLWSRTFNCSVTCSDTVSVVAVSVFILFLPVVFYLSSFLHSEQKKRKLILPKRLKSSTSFANIQENAT
modifications: N-linked glycosylation of the luminal domain
notes: Endogenous protein immunoprecipitated from Triton X-100 solubilized mouse brain membranes; also called product of the OSTM1 gene
binding result [2]: no binding | binding result [3]: no binding | binding result [4]: no binding
